B1: unnamed (protein)
chain: MALDPGAAALLQQMAQAGVPPFNQMTVQQARQSMTGLAGTAPKYPVAKVEDRTIPGPAGQIPVRIYWPISGQKVGLVVYYHGGGWVICDLETHDGTCRQLANASDCIVMSVDYRLAPEHKFPAAVEDCYAAAAWAAENAATFGVDPSRLVVAGDSAGGNLAAVVALLAKERGGPRLAHQVLIYPVTDYSFDRPSYRENAEGYLLTRDAMEWFWRHYLNSDADGQNPLASPLRAPDLRGLPSATVITAEYDPLRDEGEAYAQRLMEAGVPTTCVRYLGQIHGFVTLEHVLPAGRQALLALGATIKGVLTGALGGQPAAA
B2: unnamed (protein)
chain: MALYPSARWVLDRMAERGTRPFNEVPVERARQQFDAMMAGAPRPEVARTEDRTVPGPAGDIPVRIYWPQQQTLPLLLVYFHGGGWIMGSIESHDPTCRAIANVAGCIVVSVGYRLAPEHKFPEPLEDCYAAVRWAEENAASLGADPSLLAVGGDSAGGNLAAAVSLLARDRGGPRLAHQVLAYPVLSHGAAFPSYEENADGYFLTREMMLYCWRQYLRDEKDGDDPYASPLKASELSGLPTATIITAEHDPLRDEAEAYGVRLAQAGVPNYCLRYVGMIHGFLSLDNLLPPGRHALWSVATGLRLAATETHKRA

substrate: p-NP-C2; experiment: not given; conditions: pH 9; 30 °C

Protein | Km | kcat | kcat/Km
B1 | 220 µM | 57.1 s⁻¹ | 260000 M⁻¹ s⁻¹
B2 | 50 µM | 42 s⁻¹ | 839000 M⁻¹ s⁻¹

substrate: p-NP-C4; experiment: not given; conditions: pH 9; 30 °C

Protein | Km | kcat | kcat/Km
B1 | 80 µM | 8.77 s⁻¹ | 110000 M⁻¹ s⁻¹
B2 | 60 µM | 66.2 s⁻¹ | 1.1e+06 M⁻¹ s⁻¹

substrate: p-NP-C6; experiment: not given; conditions: pH 9; 30 °C

Protein | Km | kcat | kcat/Km
B1 | 90 µM | 0.318 s⁻¹ | 3530 M⁻¹ s⁻¹
B2 | 40 µM | 1.45 s⁻¹ | 36200 M⁻¹ s⁻¹

substrate: PET; experiment: Proxy for plastic degradation [Released monomer concentration (HPLC/LC-MS) (BHET)]; conditions: pH 8

Protein | Proxy for plastic degradation
B1 | 0.075 mM
B2 | 0.126 mM
